Measurements from publication PMC4703881.

Biological target: wild-type T7 DNA polymerase (gp5 with E. coli thioredoxin) (bacteriophage T7 | E. coli) (UniProt P00581)
Sequence (P00581 whole entry, chain 1 of 2): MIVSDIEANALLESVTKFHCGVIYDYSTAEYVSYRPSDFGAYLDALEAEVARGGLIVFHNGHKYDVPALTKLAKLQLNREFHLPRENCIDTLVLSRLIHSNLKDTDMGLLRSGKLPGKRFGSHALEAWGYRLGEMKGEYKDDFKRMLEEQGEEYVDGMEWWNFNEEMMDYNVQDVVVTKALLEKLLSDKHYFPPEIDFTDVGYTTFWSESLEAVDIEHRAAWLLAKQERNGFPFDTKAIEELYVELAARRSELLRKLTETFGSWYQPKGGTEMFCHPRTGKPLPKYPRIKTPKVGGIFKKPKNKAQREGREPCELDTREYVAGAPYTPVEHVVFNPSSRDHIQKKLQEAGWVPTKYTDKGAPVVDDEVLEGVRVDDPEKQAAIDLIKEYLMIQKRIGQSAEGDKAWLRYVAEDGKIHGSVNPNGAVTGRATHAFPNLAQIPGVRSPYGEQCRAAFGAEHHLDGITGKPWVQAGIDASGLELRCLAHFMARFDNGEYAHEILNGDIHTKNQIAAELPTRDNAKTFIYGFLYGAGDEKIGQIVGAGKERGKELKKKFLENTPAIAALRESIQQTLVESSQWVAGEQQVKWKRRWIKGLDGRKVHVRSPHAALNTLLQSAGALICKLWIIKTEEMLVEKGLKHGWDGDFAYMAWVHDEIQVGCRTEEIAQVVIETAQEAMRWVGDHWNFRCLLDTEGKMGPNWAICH
Sequence (P0AA25 whole entry, chain 2 of 2, further chain): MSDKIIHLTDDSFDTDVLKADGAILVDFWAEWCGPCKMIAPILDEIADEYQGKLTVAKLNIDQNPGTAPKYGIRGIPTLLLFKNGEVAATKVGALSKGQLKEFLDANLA

wild-type T7 helicase (gp4), sequence (P03692 whole entry): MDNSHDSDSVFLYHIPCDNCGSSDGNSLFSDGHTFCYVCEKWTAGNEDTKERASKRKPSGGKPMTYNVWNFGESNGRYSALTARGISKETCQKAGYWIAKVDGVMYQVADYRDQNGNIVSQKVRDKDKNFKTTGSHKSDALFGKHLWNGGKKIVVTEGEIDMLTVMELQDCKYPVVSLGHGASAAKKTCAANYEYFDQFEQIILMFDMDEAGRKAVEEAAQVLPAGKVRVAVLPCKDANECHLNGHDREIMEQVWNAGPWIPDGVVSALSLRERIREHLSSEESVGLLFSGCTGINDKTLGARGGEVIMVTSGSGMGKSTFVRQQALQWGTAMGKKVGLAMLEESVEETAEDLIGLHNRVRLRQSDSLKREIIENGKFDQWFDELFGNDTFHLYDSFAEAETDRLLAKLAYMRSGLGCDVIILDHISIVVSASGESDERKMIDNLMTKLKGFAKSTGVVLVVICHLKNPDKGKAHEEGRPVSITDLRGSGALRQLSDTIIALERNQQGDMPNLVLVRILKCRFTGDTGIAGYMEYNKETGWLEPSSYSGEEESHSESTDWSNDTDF

Substance: wild-type T7 helicase (gp4) (from UniProt P03692 1-566) (enzyme)
- fraction of single-molecule traces with continued leading-strand synthesis at high rate past a leading-strand CPD lesion, wt DNAP with wt helicase, 6 pN, 0.5 mM dNTP: 28 % of traces
